According to US20230365648A1 (BITTERROOT BIO, published 2023):
Substitutions are numbered along the chain they refer to. Values belong to the binder of their own block, whether it stands above or below them.

How the values were obtained:
Assay in all cases: BLI (Octet R8), construct captured on anti-human Fc sensor, CD47 in solution
[1] = biological target: T1, rhCD47-his (human CD47) (human, UniProt Q08722 19-139)
T1 construct: Soluble analyte in the Octet assay; not shown: his tag

[2] = biological target: T2, mouse CD47 (mouse, UniProt Q61735 19-140, limits assumed)
T2 construct: also called mouse CD47 protein
T2 sequence (looked up): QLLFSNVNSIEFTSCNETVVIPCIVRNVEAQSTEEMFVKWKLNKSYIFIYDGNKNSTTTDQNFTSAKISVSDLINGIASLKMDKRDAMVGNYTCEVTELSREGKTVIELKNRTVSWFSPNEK

[3] = biological target: T3, rat CD47 (rat, UniProt P97829 19-140, limits assumed)
T3 construct: also called rat CD47 protein
T3 sequence (looked up): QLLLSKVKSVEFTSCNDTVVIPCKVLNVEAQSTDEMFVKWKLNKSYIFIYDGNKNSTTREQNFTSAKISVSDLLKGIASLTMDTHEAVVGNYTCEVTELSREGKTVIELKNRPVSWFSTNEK

T1 sequence (Q08722 19-139 limits assumed): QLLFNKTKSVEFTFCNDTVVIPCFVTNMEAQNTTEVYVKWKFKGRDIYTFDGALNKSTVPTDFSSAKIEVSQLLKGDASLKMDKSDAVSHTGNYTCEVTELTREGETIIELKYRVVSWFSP

- binding result [1]: binds
- binding result [2]: binds
- binding result [3]: binds
B1: Construct 50 (SIRPα fusion polypeptide SEQ ID NO: 10 construct without the YTE mutation, i.e. with the wild type IgG4 Fc domain) (Fc fusion)
chain: EEELQIIQPDKSVLVAAGETATLRCTITSLFPVGPIQWFRGAGPGRVLIYNQRQGPFPRVTTVSDTTKRNNMDFSIRIGNITPADAGTYYCIKFRKGSPDDVEFKSGAGTELSVRAKPSAAAPPCPPCPAPEFLGGPSVFLFPPKPKDTLMISRTPEVTCVVVDVSQEDPEVQFNWYVDGVEVHNAKTKPREEQFNSTYRVVSVLTVLHQDWLNGKEYKCKVSNKGLPSSIEKTISKAKGQPREPQVYTLPPSQEEMTKNQVSLTCLVKGFYPSDIAVEWESNGQPENNYKTTPPVLDSDGSFFLYSRLTVDKSRWQEGNVFSCSVMHEALHNHYTQKSLSLSLGK
notes: It is described as the same construct as Construct 67 without the YTE mutation

- binding result [1]: binds
- binding result [2]: binds
- binding result [3]: binds
B2: Construct 67 (SIRPα fusion polypeptide of SEQ ID NO: 10, SIRPα domain of SEQ ID NO: 2 and IgG4 Fc domain with a YTE mutation) (Fc fusion)
chain: B1 chain with M151Y, S153T, T155E
